Measurements: publication PMC3742808
Read-outs that look alike come from different tables or passages of the source.

Tests used:
[1] = biological target: recombinant human APC/C (without CDH1) (human) (UniProt Q9H1A4); test: enzyme inhibition
[2] = biological target: recombinant human APC/C (without CDH1) (human) (UniProt Q9H1A4); test: enzyme inhibition; remark: listed apart in the source

Ki [1]: 13 µM
Ki [2]: 48 µM
Substance: EMI1^T (synthetic peptide corresponding to the EMI1 C-terminal tail)
